The target of experiment [1] is T1, HGF receptor c-Met β chain (Homo sapiens, UniProt P08581).
T1 construct: expressed in transfected cells; host or cells: yeast AH109 strain (library prey plasmid, human kidney cDNA library, CLONTECH)
Put plainly: Yeast two-hybrid binding of MERMUC bait proteins to c-Met prey (C-terminal 91 amino acids). Particulars: prey clone No. 3-309 (C-terminal 91 amino acids of human c-Met). The protocol: The present examination was performed using the previously reported yeast two-hybrid system (references are described above) according to conventional method and the experimental protocols provided with the reagents. […]
The binding ability of MERMUC bait protein derived from each of the bait vectors to the HGF receptor c-Met β chain was analyzed by the yeast two-hybrid system described above. […]
Each of the bait vectors was cointroduced into yeast AH109 strain with human HGF receptor c-Met prey vector (comprising DNA encoding the C-terminal 91 amino acids of the c-Met; Example 1). The binding ability of each of the bait proteins (randomly selected 10 amino acids of the human MERMUC C-terminal region) to the C-terminal region of human c-Met β chain was analyzed by the yeast two-hybrid system similar to the aforementioned Example.

The target of experiment [2] is T2, MERMUC self-association (Homo sapiens, UniProt Q8N307).
T2 construct: human MERMUC (full-length; full)/β-galΔα; β-galΔω (E. coli β-galactosidase residues 1-789); β-galΔα (E. coli β-galactosidase lacking residues 12-42); expressed in transfected cells; host or cells: CHO cells (A5); CHO-K1 cells (A6); pcDNA3 vectors
T2 sequence (Q8N307 with tags, fused parts or gaps R136E/DEL182-352/L354P/T442I/D493H limits assumed): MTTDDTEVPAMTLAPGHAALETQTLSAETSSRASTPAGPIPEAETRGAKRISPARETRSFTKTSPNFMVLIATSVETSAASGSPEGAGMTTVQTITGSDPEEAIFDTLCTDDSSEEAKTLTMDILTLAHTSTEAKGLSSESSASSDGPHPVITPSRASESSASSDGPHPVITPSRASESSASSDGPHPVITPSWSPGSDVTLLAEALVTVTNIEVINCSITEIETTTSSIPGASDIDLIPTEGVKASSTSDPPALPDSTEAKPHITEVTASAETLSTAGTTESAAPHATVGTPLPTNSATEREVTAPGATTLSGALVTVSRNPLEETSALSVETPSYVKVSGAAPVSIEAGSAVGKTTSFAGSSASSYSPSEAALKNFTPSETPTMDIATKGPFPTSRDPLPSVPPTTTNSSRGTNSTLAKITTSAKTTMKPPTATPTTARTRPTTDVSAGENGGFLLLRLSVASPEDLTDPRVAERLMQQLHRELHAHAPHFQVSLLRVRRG
Put plainly: Suppression of MERMUC self-association by MERMUC cytoplasmic region peptides (β-gal activity, CHO-K1 cells). In kind it is cell-based. Particulars: compared among del-1 to del-4; FIG. 16. An excerpt: (§1) To validate this prediction and at the same time synthesize a MERMUCMERMUC peptide that is able to suppress MERMUC self-association through the binding to the MERMUC self-association region, the following 4 types of peptides each corresponding to a part of MERMUC cytoplasmic region were synthesized by the method described later: • del-1: amino acid sequence from amino acids 244 to 345 of SEQ ID NO: 10; • del-2: amino acid sequence from amino acids 244 to 380 of SEQ ID NO: 10; • del-3: amino acid sequence from amino acids 244 to 415 of SEQ ID NO: 10; and • del-4: amino acid sequence from amino acids 244 to 450 of SEQ ID NO: 10.
(§2) Each of the cDNA obtained by PCR was digested with HindIII and XhoI and inserted into the HindIII/XhoI site of pcDNA3 vector to obtain an expression vector expressing each of the human MERMUC cytoplasmic region fragments (del-1 to del-4). […]
(§3) Intracellular β-Galactosidase activity of the recombinant cells was measured using Gal-Screen System (Applied Biosystems) according to the accompanying protocol 48 hr after plasmid transfection. […]

Experiment [3] deals with T3, MERMUC self-association (Homo sapiens, UniProt Q8N307, D493H/DEL182-352/L354P/R136E/T442I).
T3 construct: human MERMUC (full-length; full)/β-galΔα; β-galΔω (E. coli β-galactosidase residues 1-789); β-galΔα (E. coli β-galactosidase lacking residues 12-42); expressed in transfected cells; host or cells: CHO cells (A5); CHO-K1 cells (A6); pcDNA3 vectors
T3 sequence (Q8N307 with tags, fused parts or gaps R136E/DEL182-352/L354P/T442I/D493H limits assumed): T2 sequence (Q8N307 with tags, fused parts or gaps R136E/DEL182-352/L354P/T442I/D493H limits assumed)
The experiment is described as above. In kind it is cell-based. Particulars: various concentrations of del-4; FIG. 18.
Excerpt: as §1, §2, §3

Experiment [4] concerns binding of MERMUC and HGF receptor c-Met. Put plainly: Suppression of MERMUC binding to HGF receptor c-Met by MERMUC cytoplasmic region peptides (β-gal activity, CHO-K1 cells). In kind it is cell-based, human.
The test system of another experiment is MAP kinase (Erk). Put plainly: Recovery of HGF-induced MAP kinase activation in MERMUC/293 cells (Western blotting). In kind it is cell-based, human. Particulars: MERMUC expressing MERMUC/293 cells transfected with del-4 expression vector vs mock. The protocol:
The del-4 protein expression vector produced above was added to Tet-Off/MERMUC expressing recombinant cells (MERMUC/293 cells) (produced in Example 2) and cultured at 37° C. for 48 hr for transfection using GeneJammer Transfection Reagent (STRATAGENE) according to the accompanying protocol.
Cells were similarly transfected with pcDNA3 vector [mock] that lack the cDNA encoding del-4 instead of the del-4 expression vector as a control.
The cells were stimulated with human recombinant HGF (CALBIOCHEM), and cell lysate was prepared according to conventional method immediately after the stimulation to evaluate the activation level of MAP kinase (also referred to as Erk).
The cell lysate was separated by SDS-PAGE, and then subjected to Western blotting according to conventional method using anti-phosphorylated MAP kinase polyclonal antibody (Phospho-p44/42 MAP kinase (Thr202/Thr204) antibody; Cell Signaling Technology) to determine the MAP kinase activation level based on the obtained signal intensity.
A general note: A western blot detects proteins with antibodies after separation by electrophoresis.

The results in this text go back to US20050113284A1, “Drug for regenerating tissue and vessel and method therefor” (priority 2001, published 2005).

T1 sequence (P08581 1300-1390): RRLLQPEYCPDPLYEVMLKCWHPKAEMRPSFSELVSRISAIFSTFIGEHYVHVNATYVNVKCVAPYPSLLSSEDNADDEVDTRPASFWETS

B1: C260AC53: MERMUC bait protein, 53 amino acids deleted from the C-terminus of C260; amino acids 244-450 of SEQ ID NO: 10 (protein, listed as Homo sapiens)
chain: VKASSTSDPPALPDSTEAKPHITEVTASAETLSTAGTTESAAPHATVGTPLPTNSATEREVTAPGATTLSGALVTVSRNPLEETSALSVETPSYVKVSGAAPVSIEAGSAVGKTTSFAGSSASSYSPSEAALKNFTPSETPTMDIATKGPFPTSRDPLPSVPPTTTNSSRGTNSTLAKITTSAKTTMKPPTATPTTARTRPTTDVSA
As for B1, in experiment [1], the “binding activity to the HGF receptor c-Met β chain” value is “completely lost the binding activity”.

B2: del-4: MERMUC cytoplasmic region peptide, amino acids 244 to 450 of SEQ ID NO: 10 (protein, listed as Homo sapiens)
chain: B1 chain
On to B2, for which the “suppression of MERMUC self-association” value with MERMUC self-association [2] is on record as “strongest suppression”. In addition, in the experiment with MERMUC self-association [3], the “suppression of MERMUC self-association, dose dependence” value is on record as “increased in del-4 dosage-dependent manner”. Besides, the “decrease in the binding of MERMUC and HGF receptor c-Met” value in experiment [4] (compared among del-1 to del-4, FIG. 17) is listed as “greatest decrease”. The “suppression of the binding of MERMUC and HGF receptor c-Met, dose dependence” value in experiment [4] (various concentrations of del-4, FIG. 18) is “increased in del-4 dosage-dependent manner”. For the same molecule, in the experiment on MAP kinase (Erk), the “phosphorylated MAP kinase level after HGF stimulation” value is reported as “a significant level of phosphorylated MAP kinase was observed”.

B3: C260: MERMUC bait protein, C-terminal 260 amino acids of cytoplasmic region; amino acids 244-503 of SEQ ID NO: 10 (protein, listed as Homo sapiens)
chain: VKASSTSDPPALPDSTEAKPHITEVTASAETLSTAGTTESAAPHATVGTPLPTNSATEREVTAPGATTLSGALVTVSRNPLEETSALSVETPSYVKVSGAAPVSIEAGSAVGKTTSFAGSSASSYSPSEAALKNFTPSETPTMDIATKGPFPTSRDPLPSVPPTTTNSSRGTNSTLAKITTSAKTTMKPPTATPTTARTRPTTDVSAGENGGFLLLRLSVASPEDLTDPRVAERLMQQLHRELHAHAPHFQVSLLRVRRG
On to B3, for which the “binding activity to the HGF receptor c-Met β chain” value in experiment [1] was “possessed the binding activity”.
